Molecular target: T1, NKp80 on human primary T cells and NK cells (人PBMC中CD3+ T细胞和CD56+ NK细胞) (人 (human), UniProt Q9NZS2 1-231)
T1 construct: whole, on cells; also called 人原代T细胞和NK细胞
T1 sequence (looked up): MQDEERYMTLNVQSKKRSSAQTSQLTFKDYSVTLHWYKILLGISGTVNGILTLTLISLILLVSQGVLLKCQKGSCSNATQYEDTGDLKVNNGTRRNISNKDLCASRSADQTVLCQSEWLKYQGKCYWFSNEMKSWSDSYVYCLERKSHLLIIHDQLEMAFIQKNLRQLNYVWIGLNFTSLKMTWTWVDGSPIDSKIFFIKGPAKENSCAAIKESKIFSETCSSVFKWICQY
Assay: flow cytometry on human PBMC, CD3+ cells

B1: 嵌合NKp80抗体(53G7) (antibody, human IgG1, V domains shown)
VH: EVQLQQSGPELVNPGASVKISCKTSGYTFTDYYMNWVKQSHGKSLEWIGDIHPNNGGTSYNQKFKGKATLTVDKSSSTAYMELRSLTSEDSAVYYCARDYGGTYTNWAQNYFDYWGQGTTLTVSS
VL: DIVQTQSPASLAVSLGQRATISCRASQSVSTPSYSYMHWYQQKPGQPPKLLIKYASNLESGVPARFSGSGSGTDFTLNIHPVEEEDTATYYCQHSWEIPWTFGGGTKLEIKA
notes: also called 53G7抗体; 抗人NKp80抗体53G7
- binding result: binds

Reference: patent publication CN117586402A (HEFEI TIANGANG IMMUNOLOGY PHARMACEUTICAL CO LTD, dated 2024)
